Experimental data taken from patent US20260176358A1 (JIANGSU HENGRUI PHARMACEUTICALS, published 2026).
Numbering of substitutions follows the chain as printed.

T1: human CGRP (human, UniProt P06881 83-119)
T1 peptide (looked up): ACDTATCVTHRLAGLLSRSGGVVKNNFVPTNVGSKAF

T2: rat CGRP (rat, UniProt P01256 83-119)
T2 peptide (looked up): T1 peptide (looked up) with A1S, D3N, N25D, K35E

B1: C28H2L1 (antibody, human IgG1, kappa, V domains shown)
VH: EVQLVQSGAEVKKPGASVKVSCKASGYTFTDYYMNWVRQAPGQRLEWIGDINPNNVVTTYNQKFKGRATLTVDKSASTAYMELSSLRSEDTAVYYCASIIIVPDYFDYWGQGTTVTVSS
VL: DIQMTQSPSSVSASVGDRVTITCKASQNVGSNVAWYQQKPGKSPKALIYSASYRYSGVPSRFSGSGSGTDFTLTISSLQPEDFATYYCQQYNSYPYTFGGGTKVEIKR
B2: C28H1L1 (antibody, human IgG1, kappa, V domains shown)
VH: B1 VH with I48M, A68V, L70I
VL: B1 VL
B3: C9H2L1 (antibody, human IgG1, kappa, V domains shown)
VH: B1 VH with D50V, N54Y, V57R, Q62R, I99L, I100L, V102R, D104H
VL: B1 VL with V11L, S31T, F83V, Y87H, S93F, G100Q, V104L
B4: C9H8L1 (antibody, human IgG1, kappa, V domains shown)
VH: B1 VH with D50V, N54Y, N55T, V56G, V57R, Q62R, I99L, I100L, V102R, D104H
VL: B1 VL with V11L, S31T, F83V, Y87H, S93F, G100Q, V104L
B5: C9H5L1 (antibody, human IgG1, kappa, V domains shown)
VH: EVQLVQSGAEVKKPGASVKVSCKASGYTFTDYYMNWVRQAPGQRLEWMGVINPYSGRTTYNRKFKGRVTITVDKSASTAYMELSSLRSEDTAVYYCASLLIRPHYFDYWGQGTTVTVSS
VL: B1 VL with V11L, S31T, F83V, Y87H, S93F, G100Q, V104L
B6: C9H1L1 (antibody, human IgG1, kappa, V domains shown)
VH: B5 VH with S55N, G56V
VL: B1 VL with V11L, S31T, F83V, Y87H, S93F, G100Q, V104L
B7: C9H6L1 (antibody, human IgG1, kappa, V domains shown)
VH: B5 VH with M48I, V68A, I70L
VL: B1 VL with V11L, S31T, F83V, Y87H, S93F, G100Q, V104L
B8: C9H7L1 (antibody, human IgG1, kappa, V domains shown)
VH: B5 VH with S55T
VL: B1 VL with V11L, S31T, F83V, Y87H, S93F, G100Q, V104L
B9: C9H4L1 (antibody, human IgG1, kappa, V domains shown)
VH: B5 VH with M48I, S55Q, V68A, I70L
VL: B1 VL with V11L, S31T, F83V, Y87H, S93F, G100Q, V104L
B10: C9#-CHI (antibody, human IgG1, kappa, V domains shown)
VH: EVQLQQSGPVLVKPGASVKMSCKASGYTFTDYYMNWVKQSLGKSLEWIGVINPYNGRTTYNRKFKGKATLTVDKSSSTAYMELNSLTSEDSAVYYCASLLIRPHYFDYWGQGTTLTVSS
VL: DIVMTQSQKFMATSVGDRVSVTCKASQNVGTNVAWYQQKPGQSPKALIYSASYRYSVVPDRFTGSGSGTDFTLTIRNVQSEDLAEYHCQQYNFYPYTFGAGTKLELKR
notes: chimeric: murine variable regions fused to human constant regions; also called C9#-CH1
B11: C28#-CHI (antibody, human IgG1, kappa, V domains shown)
VH: EVQLQQSGPELVKPGASVKISCEASGYTFTDYYMNWVKQSHGKSLEWIGDINPNNGVTTYNQKFKGKATLTVDKSSSTAYMELRSLTSEDSAVYYCASIIIVPDYFDYWGQGTTLTVSS
VL: B10 VL with Q6H, A12S, T31S, Q38E, V57G, R76S, H87F, F93S, A100G, L106I
notes: chimeric: murine variable regions fused to human constant regions; also called C28#-CH1
B12: C21#-CHI (antibody, human IgG1, kappa, V domains shown)
VH: B11 VH with K19R, E23K, K38R, G42R, V57G, T59N, D104N
VL: DIVMTQSQKFMSTSVGDRVSVTCKASQNVDTNVAWFQQRPGQSPKALIYSASYRYSGVPDRFTGSGSGTDFTLTISNVQSEDLADYFCQQYNNYPYTFGGGTKLEIER
notes: chimeric: murine variable regions fused to human constant regions; also called C21#-CH1
B13: C1#-CHI (antibody, human IgG1, kappa, V domains shown)
VH: QVQLQQSGAELVRPGSSVKISCKASGYTFSTSWMNWVKQRPGQGLEWIGQIYPGDGYTNYNGKFRGKATLTADKSSSTAYMQLSSLTSEDSAVYFCAGDYEALWGQGTTLTVSS
VL: DVVMTQTPLSLPVSLGDQASISCRSSQSLVHSNGNTYFHWYLQRPGQSPKLLIYEVSNRFSGVPDRFSGSGSGTDFTLKISRVEAEDLGVYFCSQSTHVPFTFGSGTKLEIKR
notes: chimeric: murine variable regions fused to human constant regions; also called C1#-CH1
B14: C1H3L1 (antibody, human IgG1, kappa, V domains shown)
VH: EVQLVQSGAEVKKPGSSVKVSCKASGYTFSTSWMNWVRQAPGQGLEWMGQIYPGDGYTNYNVKFRGRVTITADKSTSTAYMELSSLRSEDTAVYYCAGDYEALWGQGTTVTVSS
VL: B13 VL with V2I, S14T, L15P, D17E, Q18P, R44K, K50Q, L88V, F92Y, S105Q
B15: PL-1 (bispecific antibody)
chain 1: not shown
chain 2: DIVLTQSPASLAVSPGQRATITCRASESVSIHGTHLMHWYQQKPGQPPKLLIYAASKLESGVPARFSGSGSGTDFTLTINPVEAEDTANYYCQQSFEDPLTFGQGTKLEIKGGGGSGIPPKIECLPIDISIDEGKVLTVASAFTGEPTPEVTWSTGGRKIHSQEQGRFHIENTDDLTTLIIKDVQKQDGGLYTLTLRNEFGSDSATVNIHIRSI
chain 3: not shown
chain 4: not shown
B16: PL-3 (bispecific antibody)
chain 1: not shown
chain 2: B15 chain 2 with V136C, L176S, I180T
chain 3: not shown
chain 4: not shown
B17: PL-4 (bispecific antibody)
chain 1: not shown
chain 2: B15 chain 2 with A142C, L176S, I180T
chain 3: not shown
chain 4: not shown
B18: PL-11 (bispecific antibody)
chain 1: not shown
chain 2: B15 chain 2 with G112R, G113T, G114V, G115A, L176S, I180T
chain 3: not shown
chain 4: not shown
B19: PL-12 (bispecific antibody)
chain 1: not shown
chain 2: B15 chain 2 with G112R, G113T, G114V, G115A, V136C, L176S, I180T
chain 3: not shown
chain 4: not shown
B20: PL-19 (bispecific antibody)
chain 1: not shown
chain 2: B15 chain 2 with G112R, G113T, G114V, G115A, A142C, L176S, I180T
chain 3: not shown
chain 4: not shown
B21: PL-6 (bispecific antibody)
chain 1: not shown
chain 2: B15 chain 2 with V136C, L176S, I180T
chain 3: not shown
chain 4: not shown
B22: PL-15 (bispecific antibody)
chain 1: not shown
chain 2: B15 chain 2 with G112R, G113T, G114V, G115A, V136C, L176S, I180T
chain 3: not shown
chain 4: not shown
B23: PL-14 (bispecific antibody)
chain 1: not shown
chain 2: B15 chain 2 with G112R, G113T, G114V, G115A, L176S, I180T
chain 3: not shown
chain 4: not shown
B24: PL-5 (bispecific antibody)
chain 1: not shown
chain 2: B15 chain 2 with L176S, I180T
chain 3: not shown
chain 4: not shown
B25: PL-7 (bispecific antibody)
chain 1: not shown
chain 2: B15 chain 2 with A142C, L176S, I180T
chain 3: not shown
chain 4: not shown
B26: PL-2 (bispecific antibody)
chain 1: not shown
chain 2: B15 chain 2 with L176S, I180T
chain 3: not shown
chain 4: not shown
B27: PL-9 (bispecific antibody)
chain 1: not shown
chain 2: B15 chain 2 with V136C, L176S, I180T
chain 3: not shown
chain 4: not shown
B28: PL-8 (bispecific antibody)
chain 1: not shown
chain 2: B15 chain 2 with L176S, I180T
chain 3: not shown
chain 4: not shown
B29: PL-10 (bispecific antibody)
chain 1: not shown
chain 2: B15 chain 2 with A142C, L176S, I180T
chain 3: not shown
chain 4: not shown
B30: PL-17 (bispecific antibody)
chain 1: not shown
chain 2: B15 chain 2 with G112R, G113T, G114V, G115A, L176S, I180T
chain 3: not shown
chain 4: not shown
B31: PL-13 (bispecific antibody)
chain 1: not shown
chain 2: B15 chain 2 with G112R, G113T, G114V, G115A, A142C, L176S, I180T
chain 3: not shown
chain 4: not shown
B32: PL-18 (bispecific antibody)
chain 1: not shown
chain 2: B15 chain 2 with G112R, G113T, G114V, G115A, V136C, L176S, I180T
chain 3: not shown
chain 4: not shown

Biological target: T1, human CGRP
Test: ELISA, coated CGRP
Description: (§1) In this test example, the abilities of the chimeric antibodies and humanized antibodies of C1 #, C9 #, C21 #, and C28 #to bind to human CGRP and rat CGRP were assessed using ELISAs. Plates were coated with […] human CGRP and rat CGRP, respectively, and blocked, and the antibodies, serially diluted, were then added. The plates were incubated for 1 h and washed, and a horseradish peroxidase-labeled anti-human Fc secondary antibody was then added. After incubation, color development was performed. […] The plates were incubated for 1 h and washed, and the antibodies, serially diluted, were then added. The plates were incubated for 1 h and washed, and a horseradish peroxidase-labeled streptavidin secondary antibody was then added. After incubation, color development was performed.

Row | EC50 [nM] | Binder
1 | 1.33 | B1
2 | 1.34 | B2
3 | 1.41 | B3
4 | 1.03 | B4
5 | 1.29 | B5
6 | 1.58 | B6
7 | 1.33 | B7
8 | 1.3 | B8
9 | 1.25 | B9
10 | 1.58 | B10
11 | 1.29 | B11
12 | 3.79 | B12
13 | 1.36 | B13
14 | 1.89 | B14

Biological target: T2, rat CGRP
Test: ELISA, coated CGRP
Description: as §1

Row | EC50 [nM] | Binder
15 | 4.04 | B1
16 | 6.28 | B2
17 | 4.32 | B3
18 | 2.8 | B4
19 | 4.48 | B5
20 | 5.3 | B6
21 | 3.13 | B7
22 | 3.57 | B8
23 | 4.2 | B9
24 | 3.11 | B10
25 | 7.4 | B11
26 | 10.1 | B12
27 | 1.81 | B13
28 | 1.95 | B14

Biological target: CGRP
Test: cell-based or functional assay

Row | IC50, inhibition of cAMP production in SK-N-MC cells [nM] | Binder
29 | 2.55 | B1
30 | 12.2 | B4
31 | 21 | B10
32 | 1.21 | B11
33 | 1.28 | B12
34 | 7.96 | B13
35 | 9.77 | B14

Biological target: hCTLA4 (human, UniProt P16410 36-161)
Sequence (P16410 36-161 limits assumed): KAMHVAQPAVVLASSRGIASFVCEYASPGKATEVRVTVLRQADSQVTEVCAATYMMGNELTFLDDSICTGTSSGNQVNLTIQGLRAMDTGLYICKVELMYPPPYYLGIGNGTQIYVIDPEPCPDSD
Test: ELISA of Test Example 4 of WO2021139758

Row | EC50 [nM] | Binder
36 | 16.5 | B15
37 | 7.9 | B16
38 | 6.5 | B17
39 | 5.6 | B18
40 | 8 | B19
41 | 6.5 | B20
42 | 5.3 | B21
43 | 3.2 | B22
44 | 6 | B23
45 | 6.7 | B24
46 | 7.3 | B25
47 | 8 | B26
48 | 5.5 | B27
49 | 14.5 | B28
50 | 6.9 | B29
51 | 6.2 | B30
52 | 4.4 | B31
53 | 6.7 | B32

Biological target: hPDL1 (human, UniProt Q9NZQ7 19-238)
Sequence (Q9NZQ7 19-238 limits assumed): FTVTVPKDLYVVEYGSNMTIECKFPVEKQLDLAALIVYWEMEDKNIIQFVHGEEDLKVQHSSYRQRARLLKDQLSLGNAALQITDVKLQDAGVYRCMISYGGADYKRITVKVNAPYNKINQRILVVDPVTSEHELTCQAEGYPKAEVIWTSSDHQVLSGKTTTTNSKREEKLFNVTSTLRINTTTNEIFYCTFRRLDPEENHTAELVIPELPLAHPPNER
Test: ELISA of Test Example 4 of WO2021139758

Row | EC50 [nM] | Binder
54 | 1.6 | B15
55 | 0.6 | B16
56 | 0.7 | B17
57 | 0.6 | B18
58 | 0.5 | B19
59 | 1.6 | B20
60 | 0.8 | B21
61 | 1.4 | B22
62 | 1.3 | B23
63 | 0.7 | B24
64 | 0.5 | B25
65 | 0.5 | B26
66 | 0.6 | B27
67 | 1.4 | B28
68 | 0.6 | B29
69 | 1.4 | B30
70 | 0.5 | B31
71 | 1.6 | B32
